# Measured values published in the nanobody polyreactivity screen of Harvey et al. (2022).
# Test: yeast display, Sf9 membrane polyspecificity reagent, FACS + sequencing; frameworks hold sequencing errors
# Procedure, shortened: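 In a synthetic yeast display library (Saccharomyces cerevisiae BJ5465), nanobody expression was induced with galactose for 36–48 hours. FACS gates were set low and high (top ~1%) using anti-HA fluorescence for expression and streptavidin fluorescence for binding of the Sf9 membrane reagent. Each polyreactivity label is drawn from the gate of origin.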
row,Sequence,polyreactivity (PSR sort gate)
1,QVQLVESGGGLVQAGGSLRLSCAASVSIFRKNAMGWYRQAPGKERELVAAITYRTGSTYYADSVKGRFTISRDNAKNTVYLQMNSLKPEDTAVYYCAAQTWGSGYGHIGRRRHDYWGQGTQVTVSS,high polyreactivity
2,QVQLVESGGGLLQAGGSLRLSCAASGSTFYPYAMRWYRQAPGKERELVAAISSGGSTSYADSVKGRFTISRDNAKNTVYLQMNCLKPEDTAVYYCNGSSPGAVPVYDYDYWGQGTQVTVSS,low polyreactivity
3,QVQLVESGGGLVQAGGSLRLSCAASGFTFDVYALGWYRQAPGKERELVAAISARGGSTCYADSVKGRFTISRDNAKNTVYLQMHSLKPEDTAVYYCNTYPKKKRPNEYDYWGQGTQVTVSS,high polyreactivity
4,QVQIVESGGGLVQAGGSLRLSCAASGRTFRENAMGWYRQAPGKERELVAAAISSGDGTNYADSVKGRFTISRDYAKNTVYLQMNSLQPEDTAVYYCAADGPRDSYDYWGQGTQVTVSS,low polyreactivity
5,QRQLVESGGGLVQAGGRLRLSCAASGMTVWDYAMGWYRHATGKERQLVAAISGSGARTYYADSVKWRFTISRDTAKNTVYLQMNSLNPEDTAVYYCAARAVRATAKYEYWGQGTQVTVSS,high polyreactivity
6,QVQLVESGGGLVQAGGSLRLSCAASGSTFYYNDMGWYRQAPGKERELVAAIRTSGSTNYADSVKGRFTISRDNAKNTVYLQMNSLKPEDTAVYYCNAVVRHWFQGWYGRGDDYWGQGTQVTVSS,low polyreactivity
7,QVQLVESGGGLVQAGGSLRLSCAASGSTFWYYAMGWSRQAPGKERELVADITYSGVSTYYADSVKGRFTISRDNAKNTVYLQMNSLKPEDTAVYYCNAVWGSVKGYSGYYYWGPGTQVTVSS,low polyreactivity
8,QVQLVESGGGLVQAGGSLRLSCAASGRISRFYAMGWYRQAPGKERELVAGIRSGDSTNYADSVKGRFTISRDNAKNTVYLQMNSLKPEDTAVYYCAAVVFSDGRYGRANRMYYWGQGTQVTVSS,high polyreactivity
9,QVQLVESGGGLVQAGGSLRLSCAASGRTFGWYAMGWYRQAPGKERELVAAISSSDDSTYYADSVKGRFTISRDNAKNTVYLQMNSLKPEDTAVYYCAADGYPDPYKVRFGYWGQGTQVTVSS,low polyreactivity
10,QVQLVESGGGLVQAGGSLRLSCAASGFTFGVYAMGWYRQAPGKERELVAAISTTVGSTYYADSVKGRFTISRDNAKNTVYLEMNSLKPEDTAVYYCAAEYTGYINYYIYEYWGQGTQVTVSS,low polyreactivity
11,QVKLVESGGGLVQAGGSLRLSCAASGRIFYYYAMGWYRPAPGKERELVAGITTGGGTNYADSVKGRFTISRDNAKNTVYLQMNSLKPEDTAVYYCATGTEGYSDDYGYWGQGTQVTVSS,low polyreactivity
12,QVQLVESGGGLVQAGGSLRLSWDASGYTFSRNAMGWYRQAPGKERELVAGISWSGSRTYYADSVKGRFTISRDNAKNTVYLQMNSLKPEDTAVYYCAVLAYGPRNARGGTAGYDYWGQGTEVTVSS,high polyreactivity
13,QVQLVESGGGLVQAGGSLRLSCAASGFTLRYYAMGWYRQAPGKERELVADISWSGGRTYYADSVKGRFTISRDNAKNTVYLQMNSLKPEDTAVYYCAAVRYYAHVYKSVGYDYWGQGTQVTVSS,high polyreactivity
14,QVQLVESGGGLVQAGGSIRISCAPSGRTFNYYAIGWNRPAPAQEREFVAAITKSCGSTYYADSVKGRFTISRDNAKYTVYLQMNSVKPEDTAVYYCATTHRYRVVYWRQGTQVTVSS,high polyreactivity
15,QVQLVETGGGLVQAGGSLRLSCAASGLIFVSNAMGWYIQAPGKVRELVAAISKSVGRTYYADSVKGRFTISRDNEKNTVYLQMNSLQPEDTAVYYCAARSRVSPRYDYWGQGTQVTVSS,high polyreactivity
16,QVQLVESGGGLVQAGGSLRLSCAASGRIFYSYAMGWYRQAPGKERELVARISSGGSTNYADSVKGRFTISRDNAKNTVYLQMNSLKPEDTAVYYCAAATIWSGVHYGYWGQGTQVNVSS,low polyreactivity
17,QVQLVESGGGLVQAGGSLRLSCAASGFILYRNAMGWYRQAPGKERELVAAISRNGGSTYYADSVKGRFTISRDNAKNTFYLQMNSLKPEDTAVYYCAARTVGRKAGFDYWGQGTQVTVSS,high polyreactivity
18,QVQLVESGGGLVQAGGSLRLSCAASGFTFERNAMGWYIQAPGKERELVATINGSSDSTYYADSVKGRFTISRDNAKNTVYLQMNSLKPEDTAVYYCNADSITEGNSRYSHFDYWGQGTQVTVSS,low polyreactivity
19,QVQLVESGGGLVQAGGSLRLSCAASGNIFYPNAMGGSRQAPGKERGLVAAISSSGGSTYYADSVKGRFTISRDNAKNTVYLQINSLKPEDTAVYYCAKDRSYAYYWSPYPTGYDYWGQGTQVTVSS,low polyreactivity
20,QVQHVESGGGLVQAGGSLRLSCAASGSTITANAMGWYRQAPGKERELVPAISDTTGNTYYADSVMGRFTISRDNANNTVYLQMNSLKPEDTAVYYCAADLTSYYGGDYWGQGTQVTVSS,low polyreactivity

row,Sequence,polyreactivity (PSR sort gate)
1,QVQLVESGGGLVQAGGSLRLSCAASGSIFQAYAMGWYRQAPGKERELVASISSGGGTNYADSVKGRFTISRDNAKNTVYLQMNSLKPEDTAVYYCAADVYLVKYDYWGQGTQVTVSS,low polyreactivity
2,QVQLVESGGGLVQAGGSLRLSCAASGFIFYYYAMGWYRQAPGKVRELVAAISTDGGSTYYADSVKGRFTISRDNAKNTVYLQMNSLKPEDTADYYCNAPYYGWGYWPLEYIRYEYWGQGTQVTVSS,low polyreactivity
3,QVQLVEAGGGLVQAGGSLRLSCAASGYIFFFYAMGWYRQAPGKERELVASITYRGGSTYYADSVKGRFTISRDNAKNTVYLQMNSLIPEDTAVYYCNVDGGGPLGPQGFPFDYWGQGTQVTVSS,low polyreactivity
4,QVQLVESGGGLVQAGGSLRLSCAASGSIFVTYAMGWYRQAPGKERELVAVITWGGGSTYYADSVKGRFTISRDNAKNTVYLQMNSLKQEDTAVYYCAKDAFFTEIAIRDHIISHHYYWGQGTQVTVSS,low polyreactivity
5,QVQLVESGGGLVQAGGRLRLSCAASGRIFPYYAMGWYRQAPGKEREFVAAITSSGGSTYYADSVKGRFTISRDNAKYTVYLQMNSLIPEDSAVYYCFAVRHFGLYAGRPYDYWGQGTQVTVSS,low polyreactivity
6,QVHLVESGGGLVQAGGSLRISCAASGFIFEPYAMGWYRQAPGKERELVAAISSTGGSTYADSVKGRFTISRDNAKNTVYIQMNSLKPEDTEGYYCAAKVRISRYTYGYWGQGNQVTVSS,high polyreactivity
7,QVHLVESGGGLVQAGGSLRLSSAASGSIFYLNAMGWYRQAPGKERELVATISNGGSTNYADSVQGRFTISRDNAKNTVYLQMNSLKPEDTAVYYCDAASGGTVVGEGDYWGQGTQVTVSS,low polyreactivity
8,QVQLVESGGGLVQAGGSLRLSCAASGSTLVIYAMGWYRQAPGKERELVAAINFSDGSTSYADSVKGRFTISRDNAKNTVYLQMNSLKPEDTAVFYWGQGTQVTVSS,low polyreactivity
9,QFQLVESGGGLVQAGGSLRLSCAASGSTFVYNAMGWDRHAPGKERELVAAISRGGGITYYADSVKGRFTISRDKAKNSVYFQMHSLKPEDTAVYYCQYLSRGLNTYRSSQGDDDYWGHGTQVTVSS,high polyreactivity
10,QVQLVESGGGLVQAGGSLRLSCAASGLIFVYYTMGWYRQAPGKERELVAAIRSGGGTNYADSVKGRFTISRDNAKNTVYFQMNSLKPEDTAVYYCAASIRSYAYGGRKYNYWGQGSQVTVSS,high polyreactivity
11,QVQLVESGGGLVQAGGSLLLSCAASGNIIYSNALGWYRQGPGKERELVAAISSGGITYYADSVKGRFTISRDNAKNTVYLQMNSLKPEDTAVYYCAAYIRNWRATYEYWGQGTQVTVSS,high polyreactivity
12,QVQLVESGGGLVQAGGSLRLSCAASGRTLNRYAMGWYRQAPGKERELVAAIRWRGASTYYADSVKGRFTISRDNAKNTVYLQMNSLKPEDTAVYYCAKRFFASTPNFDYWGQGTQVTVSS,high polyreactivity
13,QVQLVESGGGLVQAGGSLRLSCAASGITFATYAMGWYRQAPGKERELVAAISGGGGRTYYADSLKGRFTISRDNAKNTVYLQMNSLKPEDTAVYYCATAQRSSQFYHWGQGTQVTVSS,high polyreactivity
14,QVQLVESGGGLVQAGGSLRLSCAASGRTFYSYVMGWYRQAPGKEREFVADISQSGGRTFYSDSVKGRFTISRDNAKNTVYLQMNSLKPEDTAVYYCAAAKRGSYARGYYWGQGTQVTVSS,low polyreactivity
15,QVQLVESGGGLVQAGGSLRLSCAASGFIFRSYAMGWYRQAPGKERELVAAINSRAGNTYYADSVKGRFTISRDNAKNTVYLQINSLKPEDNAVYYCNAVRHTYGYYSWGQGTQVTVSS,high polyreactivity
16,QVQLVESGGGLVQAGGSLRLSCAASGYTFDYYAMGRYRQAPGNERELVAAITNSGGSTYYADSVKGRFTISRDNAKKTVYLQMNSLKPEDPAVYYCAALYYVKPGQRYDYWGQGTQVTVSS,high polyreactivity
17,QVKLVESGGGLVQAGGSLRLSCDASGFIFSLYAMGWYRQEHGKERDLVAAISKRGGSTNYADSVKGRFTISRDNAKNTVYLQMNSLKTEDTAVYYCAKARPVFLYDHWGQGTQLTVSS,high polyreactivity
18,QVQLVESGGGLVQAGGSLRLSCAASGFTFALYTMGSYRQAPGKERELVAAIRSTGSTYADSVKGRFTISRDNAKNTVYLQMNSLKPEDTAVYYCAAQYWRRKKYYYWGQGTQVTVSS,high polyreactivity
19,QVQLVESGGGLVQAGGSLRLSCAASGRIVEGNVMGWYRQAPGKERELVAGISSGGSTTYADSVKGRFTISRDNAKNTVYLQMNSLKPEDTAVYYCAASRKRFRHSSYRFYYCGQGTQVTVSS,high polyreactivity
20,QVHLVESGGGLVQAGGSLRLSCAASGSILGGNAMGWYRQAPGKERELVAAITFSGGGTYYADSVKGRFTISRDNAKNTVYLQMNSLKPEDTAVYYCAADKDGYTYEFDYWGQGTQVTVSS,low polyreactivity
